Reference: US20090263836A1

Target: iBoNT/A (protease inactive version of BoNT/A) (Clostridium botulinum)
Assay: SPR (BIAcore), […] ([…] to […])

Substance | Kd [nM]
SV2C529-566 (luminal part of SV2C) (peptide) | 5000
sFGFR3 (loop 2 and 3 of the extra cellular domain of FGFR3) (receptor) | 10
